Laboratory results: patent US8686115B2, “Compositions and methods for quantitatively monitoring lipids” (The Board of Trustees of the University of Illinois, priority 2009, dated 2014)
Blank lines part the entries; values can stand above or below the molecule they belong to.

How the values were obtained:
[1] = system: NIH 3T3 cells; assay: Change of plasma membrane [PtdIns(4,5)P2]s on stimulation, quantified with DAN-eENTH; format: cell-based; conditions: 1 μM insulin
Procedure: (§1) DAN-eENTH was delivered into NIH 3T3 cells by microinjection for live cell imaging and determined cellular [PtdIns(4,5)P2] by the ratiometric analysis. The green channel (FIG. 10a) representing both PtdIns(4,5)P2-bound and free DAN-eENTH illustrates that the sensor is successfully loaded into cells and randomly distributed in the cytosol, the nucleus, and the plasma membrane. […] When [PtdIns(4,5)P2]s in the PM was determined in a time-dependent manner by either single-channel 9FB) or ratiometric (FB/FG) analysis using the calibration curve (FIG. 2c or 2d), dramatic local heterogeneity of [PtdIns(4,5)P2]s was clearly visible at a given time ((FIG. 9c). […] In FIG. 7, the different angles represent different locations in the plasma membrane. […] That is, PtdIns(4,5)P2 can be locally enriched, but only transiently, in the quiescent cells. […] Also, the change in [PtdIns(4,5)P2]s was monitored in response to physiological stimuli, ATP and insulin. […]
(§2) NIH 3T3 cells were seeded into 8-well plates and grown at 37° C. in a humidified atmosphere of 95% air and 5% CO2 in Dulbecco's modified Eagle's medium (DMEM) (Invitrogen) supplemented with 10% (v/v) fatal bovine serum (Invitrogen). […] Thus, the cellular [PtdIns(4,5)P2] was determined from the observed (FB/FG) values using the in vitro calibration curve determined using POPC/POPS/PtdIns(4,5)P2 GUVs.

[2] = system: NIH 3T3 cells; assay: Cellular distribution of microinjected sensor in live cells; format: cell-based; conditions: FIG. 6
Procedure: as §1, §2

[3] = Equilibrium SPR binding to other phosphoinositide vesicles; conditions: POPC/POPS/phosphoinositide (77:20:3) vesicles; no significant SPR response signal with injection of 1 μM protein
[4] = SPR analysis of lipid selectivity of Lact-C2 and mutant; format: binding; conditions: FIG. 12(a), 12(b)
Excerpt: The Lact-C2 domain was converted into a PA-specific protein through protein engineering based on the crystal structure of Lact-C2 (J. Biol. Chem., (283)7230-7241 (2008)) and our molecular insight into PA and PS binding proteins. In the crystal structure, D80, H83, and Q85 interact with the serine head group of PS, so we mutated them to R, E, and K, respectively, to abrogate PS binding. Since PA has higher negative charge density without the head group, a mutant without PS binding may still interact with PA with high affinity. […] PA formation in NIH 3T3 cells in the presence of the phorbol ester, PMA, was successfully quantified.

Molecule: insulin
reduction in spatially averaged [PtdIns(4,5)P2]s in the plasma membrane [1]: ~10%

Kd [3]: > 1000 nM
B1: DAN-eENTH: eENTH (M10C, C96A, S4W) linked via C10 to 2-dimethylamino-6-acyl-naphthalene (DAN); PtdIns(4,5)P2 sensor (conjugate)
chain: MSTWSLRRQCKNIVHNYSEAEIKVREATSNDPWGPSSSLMSEIADLTYNVVAFSEIMSMIWKRLNDHGKNWRHVYKAMTLMEYLIKTGSERVSQQAKENMYAVQTLKDFQYVDRDGKDQGVNVREKAKQLVALLRDEDRLREERAHALKTKEKLAQTA
modifications: DAN fluorophore on Cys10; Modified ENTH domain of Epsin 1.
notes: eENTH (M10C, C96A, S4W) linked via C10 to 2-dimethylamino-6-acyl-naphthalene (DAN); PtdIns(4,5)P2 sensor
cellular localization after microinjection [2]: mainly enriched in the plasma membrane

B2: Lact-C2: C2 domain of bovine lactadherin, SEQ ID NO:3 (protein)
chain: CTEPLGLKDNTIPNKQITASSYYKTWGLSAFSWFPYYARLDNQGKFNAWTAQTNSASEWLQIDLGSQKRVTGIITQGARDFGHIQYVAAYRVAYGDDGVTWTEYKDPGASESKIFPGNMDNNSHKKNIFETPFQARFVRIQPVAWHNRITLRVELLGC
modifications: C2 domain of bovine lactadherin.
lipid selectivity by SPR [4]: PS-specific
